From US11541101 (UNIVERSITY OF VIRGINIA PATENT FOUNDATION, dated 2023)

Target: T1, LEM domain containing protein 3 (LEMD3), endogenous (human, UniProt Q9Y2U8 2-911)
T1 construct: also called endogenous LEMD3; native LEMD3
T1 sequence: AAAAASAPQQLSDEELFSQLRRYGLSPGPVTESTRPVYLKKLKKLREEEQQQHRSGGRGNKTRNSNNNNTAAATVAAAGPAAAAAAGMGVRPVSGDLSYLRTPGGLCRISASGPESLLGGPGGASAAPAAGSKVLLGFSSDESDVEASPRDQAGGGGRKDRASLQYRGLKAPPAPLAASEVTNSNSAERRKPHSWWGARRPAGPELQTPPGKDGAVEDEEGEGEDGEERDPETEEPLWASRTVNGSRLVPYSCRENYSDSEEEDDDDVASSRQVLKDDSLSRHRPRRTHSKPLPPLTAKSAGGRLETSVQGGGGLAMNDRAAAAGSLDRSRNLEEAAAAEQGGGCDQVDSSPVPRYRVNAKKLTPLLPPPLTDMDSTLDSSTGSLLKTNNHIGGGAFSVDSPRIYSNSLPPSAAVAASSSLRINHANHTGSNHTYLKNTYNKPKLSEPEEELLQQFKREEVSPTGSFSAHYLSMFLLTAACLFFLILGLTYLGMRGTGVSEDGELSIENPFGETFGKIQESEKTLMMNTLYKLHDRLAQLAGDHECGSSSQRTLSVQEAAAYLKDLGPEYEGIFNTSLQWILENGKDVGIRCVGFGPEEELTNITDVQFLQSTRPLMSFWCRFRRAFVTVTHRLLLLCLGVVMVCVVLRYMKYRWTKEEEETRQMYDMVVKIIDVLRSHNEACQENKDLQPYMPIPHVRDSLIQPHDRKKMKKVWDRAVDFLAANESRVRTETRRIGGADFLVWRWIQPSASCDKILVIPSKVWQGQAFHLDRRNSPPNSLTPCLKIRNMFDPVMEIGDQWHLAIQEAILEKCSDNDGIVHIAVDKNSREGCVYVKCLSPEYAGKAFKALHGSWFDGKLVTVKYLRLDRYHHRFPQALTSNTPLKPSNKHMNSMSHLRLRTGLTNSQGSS
Assay: LEMD3-PPM1α PLA in HFFs on glass; significant in cytoplasm and nucleus
Experimental: In vitro PLA: Protein-protein PLA was per-formed with antibody pairs listed in Table 4 as described in (42) with the following modifications: cells were plated on FN-coated glass or hydrogels (Matrigen, Brea, Calif.). All primary antibody in-cubations were performed for 16-24 hours at 4 C and cells were counter-stained with 1:40 phalloidin-488 or phalloidin-546 in 1×PBS for 30 minutes at room tempera-ture and/or further processed for IF imaging using the procedure recommended in Sigma's PLA Resource Center. For all recombinant LEMD3 and C-terminal fragment experiments, HFFs were electroporated as above and allowed to culture for 24 hours on 10 µg/mL fibronectin coated glass or hydrogels before fixation. For LEMD3-phospho-Smad2/3, LEMD3-Smad2/3+TGFβ and for Smad2/3-Smad4 PLA assays: cells were treated 90 minutes before fixation with 50 µg/mL for LEMD3- and CTF-Smad2/3 assays, 100 µg/mL TGFβ for LEMD3-phospho-Smad2/3 experiments and 500 µg/mL TGFβ for Smad2/3-Smad4 experiments. […] Imaging and analysis were performed as described for high-resolution ex vivo PLA signals except that no tissue autofluorescence signal was measured or needed to be subtracted and, when appro-priate, other IF signal (e.g. FLAG) were measured in parallel. […] Instead the PLA signal was quantified as the PLA volume divided by the nuclear intensity for each image.

B1: Protein Phosphatase, Mg2+/Mn2+ Dependent 1α (PPM1α) (enzyme, human, UniProt P35813 2-382, looked up)
chain: GAFLDKPKMEKHNAQGQGNGLRYGLSSMQGWRVEMEDAHTAVIGLPSGLESWSFFAVYDGHAGSQVAKYCCEHLLDHITNNQDFKGSAGAPSVENVKNGIRTGFLEIDEHMRVMSEKKHGADRSGSTAVGVLISPQHTYFINCGDSRGLLCRNRKVHFFTQDHKPSNPLEKERIQNAGGSVMIQRVNGSLAVSRALGDFDYKCVHGKGPTEQLVSPEPEVHDIERSEEDDQFIILACDGIWDVMGNEELCDFVRSRLEVTDDLEKVCNEVVDTCLYKGSRDNMSVILICFPNAPKVSPEAVKKEAELDKYLECRVEEIIKKQGEGVPDLVHVMRTLASENIPSLPPGGELASKRNVIEAVYNRLNPYKNDDTDSTSTDDMW
notes: whole, on cells; Endogenous protein inside fixed HFFs, detected by PLA with antibody 7F12; also called PPM1a
binding result: binds
